# Experimental data published in US20260055369A1, “METHOD FOR GENERATING CELLS OF THE T CELL LINEAGE WITH ENGINEERING BROADLY REACTIVE HUMAN NOTCH LIGAND” (H. Lee Moffitt Cancer Center and Research Institute, Inc., priority 2022, published 2026).
# B1: DLL4.v2: human DLL4 clone with five mutations N257P, T271L, F280Y, S301R, Q305P; matches SEQ ID NO: 5 (protein)
# chain: SGVFQLQLQEFINERGVLASGRPCEPGCRTFFRVCLKHFQAVVSPGPCTFGTVSTPVLGTNSAVRDDSSGGGRNPLQLPFNFTWPGTFSLIIEAWHAPGDDLRPEALPPDALISKIAIQGSLAVGQNWLLDEQTSTLTRLRYSYRVICSDNYYGDNCSRLCKKRNDHFGHYVCQPDGNLSCLPGWTGEYCQQPICLSGCHEQNGYCSKPAECLCRPGWQGRLCNECIPHPGCRHGTCSTPWQCLCDEGWGGLYCDQDLNYCTHHSPCKNGATCRNSGPRSYTCTCRPGYTGVDCELELSECDSNPCRNGGSCKDQEDGYHCLCPPGYYGLHCEHSTLSCADSPCFNGGSCRERNQGANYACECPPNFTGSNCE
# B2: DLL4.v1: human DLL4 construct containing the five E12 mutations (Site 1+Site 2); sequence matches SEQ ID NO: 2 (protein)
# chain: SSVFQLQLQEFINERGVLASGRPCEPGCRTFFRVCLKHFQAVVSPGPCTFGTVSTPVLGTNSFAVRDDSSGGGRNPLQLPLNFTWPGTFSLIIEAWHAPGDDLRPEALPPDALISKFAIQGSLAVGQNWLLDEQTSTLTRLRYSYRVICSDNYYGDNCSRLCKKRNDYFGHYVCQPDGNPSCLPGWTGEYCQQPICLSGCHEQNGYCSKPAECLCRPGWQGRLCNECIPHNGCRHGTCSTPWQCTCDEGWGGLFCDQDLNYCTHHSPCKNGATCSNSGQRSYTCTCRPGYTGVDCELELSECDSNPCRNGGSCKDQEDGYHCLCPPGYYGLHCEHSTLSCADSPCFNGGSCRERNQGANYACECPPNFTGSNCE
# Tested on: Notch1 (EGF6-13)
# Assay: SPR determination of equilibrium dissociation constants
# Format: binding, human
# Conditions: for off-rate from fitted SPR sensograms: series DLL4.v1, DLL4.v2, Delta^MAX, FIG. 2C Notch1 EGF6-13; for binding affinity compared to WT DLL4: stated for all four human Notch receptors (Notch1-4)
# Method: Equilibrium dissociation constants were determined by surface plasmon resonance using a Biacore T200 instrument (GE Healthcare). Approximately 100 resonance units (RU) of biotinylated Notch extracellular fragments (Notch1 (EGF6-13), Notch2 (EGF6-13), Notch3 (EGF5-12), Notch4 (7-12), and mouse Notch1 (EGF6-13)) were immobilized on individual flow cells at 5 μl/min using a streptavidin-coated sensor chip (Series S Sensor chip SA, GE Healthcare). Three-fold serial dilutions of recombinant DLL4 proteins (N-EGF5) starting at 50 μM (WT DLL4), 18 μM (DLL4.v2), and 6 μM (DLL4.v1 and Delta^MAX) were flowed over the chip at 25° C. in SPR buffer (20 mM HEPES pH 7.4, 150 mM NaCl, 1 mM calcium chloride, 0.1% BSA supplemented with 0.005% surfactant P20). Association (“on-rate”) and dissociation (“off-rate”) phases were performed at 10 μl/min for 120 seconds and 300 seconds, respectively. The sensor chip was regenerated after each injection with 30-second washes of 2.25M Magnesium Chloride containing 25% Ethylene Glycol at 50 μL/min. Data collection rate was performed at 10 Hz, and curves were reference-subtracted from a flow cell containing 100 RU of a negative control non-related protein (biotinylated mouse RNF43 PA domain). The maximum RU for each experiment was normalized to a value of 100% and plotted as a function of concentration using Prism 9 software (GraphPad). Steady-state binding and kinetic curves were fitted using the Biacore T200 evaluation software to a 1:1 Langmuir model to determine the KD values.
# Sequence of Notch1 (EGF6-13) (P46531 257-526 limits assumed): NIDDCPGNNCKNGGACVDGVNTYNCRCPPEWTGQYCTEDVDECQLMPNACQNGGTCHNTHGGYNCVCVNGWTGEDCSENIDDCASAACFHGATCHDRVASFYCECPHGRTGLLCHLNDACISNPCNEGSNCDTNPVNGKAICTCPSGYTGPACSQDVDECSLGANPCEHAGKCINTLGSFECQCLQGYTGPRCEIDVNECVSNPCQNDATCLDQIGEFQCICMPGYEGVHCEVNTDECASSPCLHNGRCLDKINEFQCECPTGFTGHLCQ
Molecule,off-rate from fitted SPR sensograms,binding affinity compared to WT DLL4
B1,progressive decreases in off-rate,enhanced affinity
B2,progressive decreases in off-rate,enhanced affinity
